From paper PMC3382207, “Proteolytic Processing of ErbB4 in Breast Cancer” (PLoS ONE, 2012) come the findings set out here.

Experiment [1] addresses T1, soluble ErbB4 ectodomain (UniProt Q15303).
T1 sequence: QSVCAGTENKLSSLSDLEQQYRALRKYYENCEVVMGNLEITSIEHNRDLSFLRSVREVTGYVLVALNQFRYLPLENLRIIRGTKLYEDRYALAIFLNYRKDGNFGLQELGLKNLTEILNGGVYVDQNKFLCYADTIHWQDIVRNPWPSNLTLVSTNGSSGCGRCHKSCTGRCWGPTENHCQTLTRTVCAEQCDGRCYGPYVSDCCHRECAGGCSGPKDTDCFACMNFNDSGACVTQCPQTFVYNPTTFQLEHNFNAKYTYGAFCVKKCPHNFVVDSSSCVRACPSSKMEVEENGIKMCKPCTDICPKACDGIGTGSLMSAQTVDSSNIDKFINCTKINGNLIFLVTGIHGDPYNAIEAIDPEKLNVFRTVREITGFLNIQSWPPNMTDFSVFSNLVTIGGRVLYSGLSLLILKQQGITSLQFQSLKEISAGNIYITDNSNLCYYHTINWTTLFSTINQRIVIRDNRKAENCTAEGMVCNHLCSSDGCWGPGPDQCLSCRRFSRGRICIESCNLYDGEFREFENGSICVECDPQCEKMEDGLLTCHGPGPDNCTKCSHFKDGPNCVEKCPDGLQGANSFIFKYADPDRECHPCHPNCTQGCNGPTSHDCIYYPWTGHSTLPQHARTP

In experiment [2] the target is T1, soluble ErbB4 ectodomain. This is another data set of the same source.
The target of experiment [3] is T2, His-tagged extracellular subdomain IV of ErbB4 (Homo sapiens, isoform JM-a, UniProt Q15303).
T2 construct: ErbB4 extracellular subdomain IV; construct limits are in File S1; source: COS-7, transiently transfected, in conditioned medium; not shown: His tag, C-terminal, kept
T2 sequence (Q15303 whole entry, looked up, tested part not stated, canonical isoform): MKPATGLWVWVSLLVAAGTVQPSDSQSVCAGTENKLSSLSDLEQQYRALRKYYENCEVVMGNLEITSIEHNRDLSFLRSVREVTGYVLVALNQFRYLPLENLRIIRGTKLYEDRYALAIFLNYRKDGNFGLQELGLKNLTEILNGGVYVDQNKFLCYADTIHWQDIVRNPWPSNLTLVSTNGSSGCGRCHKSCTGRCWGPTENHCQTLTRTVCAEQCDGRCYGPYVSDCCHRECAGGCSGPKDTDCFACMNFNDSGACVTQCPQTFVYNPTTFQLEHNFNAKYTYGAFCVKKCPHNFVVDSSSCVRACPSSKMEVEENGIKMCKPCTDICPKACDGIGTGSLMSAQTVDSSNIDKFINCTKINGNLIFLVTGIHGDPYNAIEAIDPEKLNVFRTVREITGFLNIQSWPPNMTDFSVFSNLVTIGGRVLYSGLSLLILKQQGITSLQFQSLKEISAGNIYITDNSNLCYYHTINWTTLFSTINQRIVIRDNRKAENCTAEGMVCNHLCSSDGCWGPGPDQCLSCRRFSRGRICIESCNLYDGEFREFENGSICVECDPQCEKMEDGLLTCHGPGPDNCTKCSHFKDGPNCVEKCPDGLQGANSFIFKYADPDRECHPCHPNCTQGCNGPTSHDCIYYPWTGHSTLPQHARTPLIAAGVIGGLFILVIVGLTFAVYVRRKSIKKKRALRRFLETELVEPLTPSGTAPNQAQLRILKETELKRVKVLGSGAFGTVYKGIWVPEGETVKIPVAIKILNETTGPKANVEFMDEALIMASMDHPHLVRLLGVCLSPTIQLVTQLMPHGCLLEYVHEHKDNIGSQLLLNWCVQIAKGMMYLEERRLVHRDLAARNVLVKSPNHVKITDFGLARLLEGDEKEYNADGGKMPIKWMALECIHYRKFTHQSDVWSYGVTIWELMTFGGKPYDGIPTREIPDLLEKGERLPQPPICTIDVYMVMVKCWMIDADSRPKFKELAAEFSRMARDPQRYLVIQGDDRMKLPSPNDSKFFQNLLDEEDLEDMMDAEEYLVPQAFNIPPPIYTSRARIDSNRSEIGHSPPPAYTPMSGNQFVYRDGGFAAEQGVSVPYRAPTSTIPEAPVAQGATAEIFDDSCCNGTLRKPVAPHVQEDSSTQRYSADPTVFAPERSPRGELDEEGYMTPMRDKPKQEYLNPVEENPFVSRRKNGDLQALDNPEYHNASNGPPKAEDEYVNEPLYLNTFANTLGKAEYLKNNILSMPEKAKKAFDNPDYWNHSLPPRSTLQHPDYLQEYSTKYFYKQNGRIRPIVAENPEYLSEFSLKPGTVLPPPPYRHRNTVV
The experiment in a line: Western blot; conditioned media of COS-7 transfectants expressing the His-tagged subdomains, blotted under non-reducing conditions, mAb 1479 as the primary antibody; anti-pentaHis as control of expression. The settings on record: one partner purified. Background: In western blotting, separated proteins are transferred to a membrane and probed.

B1: anti-ErbB4 monoclonal antibody mAb 1479 (antibody, V domains shown)
VH: QVTLKESGPGILQPSQTLSLTCSFSGFSLSTYGIGVGWIRQPSGKGLEWLAHIWWNDNKYYNIALRSRLTISKDTSNNQVFLKIASVDTADTATYYCARIPDDHYFDYWGQGTTLTVSS
VL: DVLMTQTPLSLPVSLGDQASISCRSSQSIVHSNGNTYLEWYLQKPGQSPKLLIYKVSNRFSGVPDRFSGSGSGTDFTLKISRVEAEDLGVYYCFQGSHVPWTFGGGTKLEIK
notes: constant part of the IgG2 isotype; mouse monoclonal antibody, IgG2 isotype
For B1, in experiment [1], the relative proportion of the 100 kD ectodomain fragment of total ErbB4 in T-47D xenografts (Western blot with mAb 1464), control IgG against mAb 1479 amounted to 9%. The same molecule gave a relative proportion of the 80 kD carboxy-terminal fragment of the total ErbB4 in T-47D xenografts (Western blot with E-200), control IgG against mAb 1479 in experiment [2] of 74%. In addition, in experiment [3], the binding result is given as “binds”.
